In assay [1] the target is T1, GST-Omi PDZ fusion protein (human, UniProt O43464 359-458).
T1 construct: also called GST-hOmiPDZ; hOmi PDZ domain; not shown: glutathione S-transferase (GST) encoded by plasmid pGEX6P-3
T1 sequence: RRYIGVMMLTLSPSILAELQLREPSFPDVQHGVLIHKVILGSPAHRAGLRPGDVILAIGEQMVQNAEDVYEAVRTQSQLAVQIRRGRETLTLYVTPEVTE
The experiment in a line: competition ELISA, 20 nM GST-Omi PDZ, immobilized biotin-GWTMFWV as competitor. As to the method: (§1) Affinity Assays—The binding affinities of peptides for Omi PDZ were determined as IC₅₀ values using a previously described competition ELISA(18). The IC₅₀ value was defined as the concentration of peptide that blocked 50% of PDZ domain binding to immobilized peptide. Assay plates were prepared by immobilizing an amino-terminally biotinylated peptide (biotin-GWTMFWV) on maxisorp plates coated with NeuTravidin and blocked with BSA. A fixed concentration of GST-Omi PDZ fusion protein (20 nM) in PBS, 0.5% BSA, 0.1% Tween 20 (PBT buffer) was preincubated for 1 h with serial dilutions of peptide and then transferred to the assay plates. After 1 h incubation, the plates were washed with PBS, 0.05% Tween 20, incubated for 30 min with HRP/anti-GST antibody (1:10,000) in PBT buffer, washed again, and detected with 3,3′,5,5′-Tetramethyl-benzidine/H₂O₂ (TMB) peroxidase substrate.
In general terms: An ELISA detects its analyte on a solid surface through an enzyme-linked reagent.

The target in assay [2] is T1, GST-Omi PDZ fusion protein. The experiment in a line: phage ELISA on GST-Omi PDZ after three rounds of selection. As to the method:
Selection for Omi PDZ peptides—Previously described procedures were used to isolate peptides that bound to a GST-Omi PDZ fusion, using libraries of random decapeptides fused to either the C terminus(18) or octapeptide fused to the N terminus(19) of the M13 gene-8 major coat protein, designated as libC or libN, respectively. After three rounds of selection, individual clones were grown in a 96-well format in 500 μL of 2YT broth supplemented with carbenicillin, kanamycin and KO7, and the culture supernatants were used directly in phage ELISAs(19) to detect peptides that bound specifically to Omi PDZ. Peptide sequences derived from positive clones were aligned and tabulated. A total of 95 positive colonies from libC and 89 from libN were analyzed. (see Table II). […] The sequences were selected after three rounds of sorting with IPTG induction. Hydrophobic residues (A, F, I, L, M, V, W, Y) are italicized and bolded, n is the number of siblings.

Assay [3] has as its target T1, GST-Omi PDZ fusion protein. The experiment in a line: competition ELISA. As to the method:
as §1

Where no end group is shown, it is not given here.

H-SHWWGGW-NH2 (also called SHWWGGW) [hOmi_n1_t2]: the IC50 in assay [1] is 26 µM.

B1: libC phage-displayed peptide SEQ ID NO:31 (peptide)
chain: DRLNWLFFWI
modifications: not fully specified
notes: not shown: M13 gene-8 major coat protein (P8)
In the case of B1, in assay [2], the binding result was “binds”.
For H-SHWWGGWL-NH2 [hOmi_n1_t1], the IC50 in assay [1] was determined as 17.6 µM.

B2: libN phage-displayed peptide AGDSWWWGG (peptide)
chain: AGDSWWWGG
modifications: not fully specified (C-terminus)
notes: 4 siblings; not shown: M13 gene-8 major coat protein (P8)
Consider B2, for which the binding result in assay [2] is given as “binds”.

B3: hOmi_c1 (peptide)
peptide: Ac-SWTMFWV-OH
notes: synthetic peptide from libC; also called SWTMFWV
Regarding B3, the IC50 in assay [1] is 3.3 µM.
Ac-AWTMFWV-OH (also called AWTMFWV) [hOmi_c1_A7]: the binding result in assay [3] is reported as “binds”.
Ac-MFWV-OH (also called MFWV) [hOmi_c1_t3]: in assay [1], the IC50 worked out at 24.1 µM.

B4: libN phage-displayed peptide WEWIGMEWG (peptide)
chain: WEWIGMEWG
modifications: not fully specified (C-terminus)
notes: 31 siblings; not shown: M13 gene-8 major coat protein (P8)
Turning to B4, the binding result in assay [2] was “binds”.

B5: libC phage-displayed peptide SEQ ID NO:32 (peptide)
chain: YPTYWTFWWV
modifications: not fully specified
notes: as for B1
B5: the binding result in assay [2] is reported as “binds”.

B6: libN phage-displayed peptide GGFWWGPAG (peptide)
chain: GGFWWGPAG
modifications: not fully specified (C-terminus)
notes: 5 siblings; not shown: M13 gene-8 major coat protein (P8)
With B6, the binding result in assay [2] is listed as “binds”.

B7: libC phage-displayed peptide SEQ ID NO:33 (peptide)
chain: LYSIYRFFWA
modifications: not fully specified
notes: as for B1
In the case of B7, the binding result in assay [2] is “binds”.

B8: libC phage-displayed peptide SEQ ID NO:36 (peptide)
chain: TMSDWLFWWA
modifications: not fully specified (N-terminus)
notes: as for B1
As to B8, the binding result in assay [2] was “binds”.

B9: libN phage-displayed peptide SEQ ID NO:51 (peptide)
chain: WGYWWGPGG
modifications: not fully specified (C-terminus)
notes: as for B1
B9: the binding result in assay [2] is recorded as “binds”.

B10: libC phage-displayed peptide SEQ ID NO:39 (peptide)
chain: RIPFLFFLWA
modifications: not fully specified (N-terminus)
notes: as for B1
On to B10, for which the binding result in assay [2] is listed as “binds”.

B11: libC phage-displayed peptide SEQ ID NO:27 (peptide)
chain: PGRWGPFFWV
modifications: not fully specified
notes: as for B1
With B11, the binding result in assay [2] was “binds”.
In the case of H-HWWGGWLG-NH2 [hOmi_n1_t6], the “fold reduction of binding affinity vs … (hOmi_n1)” value in assay [3] is 3 fold.
As for H-SHWW-NH2 (also called SHWW; tetrapeptide (SHWW)) [hOmi_n1_t5], in assay [3], the “fold lower affinity vs … (hOmi_n1)” value was found to be 3 fold. Besides, the IC50 in assay [1] is 72.2 µM.

B12: libC phage-displayed peptide SEQ ID NO:44 (peptide)
chain: TVHSWFLWFV
modifications: not fully specified (N-terminus)
notes: as for B1
With B12, the binding result in assay [2] was “binds”.

B13: libC phage-displayed peptide SEQ ID NO:42 (peptide)
chain: SLLNWVLYLV
modifications: not fully specified (N-terminus)
notes: as for B1
Take B13: the binding result in assay [2] is “binds”.

B14: libN phage-displayed peptide ESLWWGWEG (peptide)
chain: ESLWWGWEG
modifications: not fully specified (C-terminus)
notes: 7 siblings; not shown: M13 gene-8 major coat protein (P8)
Consider B14, for which the binding result in assay [2] is recorded as “binds”.
H-ATEFWWGVG-NH2 (synthetic peptide from libN) [hOmi_n4]: the IC50 in assay [1] is 32.4 µM.

B15: libC phage-displayed peptide SEQ ID NO:40 (peptide)
chain: SKLRLFFMWV
modifications: not fully specified (N-terminus)
notes: as for B1
Take B15: the binding result in assay [2] is recorded as “binds”.

B16: libC phage-displayed peptide SEQ ID NO:46 (peptide)
chain: IPLHWIFYLV
modifications: not fully specified (N-terminus)
notes: as for B1
With B16, in assay [2], the binding result was “binds”.

B17: libC phage-displayed peptide SEQ ID NO:41 (peptide)
chain: TGMSWTIWFL
modifications: not fully specified (N-terminus)
notes: as for B1
Consider B17, for which, in assay [2], the binding result is recorded as “binds”.
In the case of H-SHWWGGWLG-NH2 (synthetic peptide from libN) [hOmi_n1], the IC50 in assay [1] worked out at 21.6 µM.

B18: libC phage-displayed peptide KVASWTMFWV (peptide)
chain: KVASWTMFWV
modifications: not fully specified
notes: 42 siblings; not shown: M13 gene-8 major coat protein (P8)
On to B18, for which the binding result in assay [2] was “binds”.

B19: libC phage-displayed peptide SEQ ID NO:35 (peptide)
chain: SFYILRYFWV
modifications: not fully specified
notes: as for B1
Regarding B19, the binding result in assay [2] is given as “binds”.

B20: libC phage-displayed peptide SEQ ID NO:28 (peptide)
chain: DSLLFDFWWA
modifications: not fully specified
notes: as for B1
For B20, the binding result in assay [2] is on record as “binds”.

B21: hOmi_c2 (peptide)
peptide: Ac-RFPHFWV-OH
notes: synthetic peptide from libC; also called RFPHFWV
Turning to B21, the “fold lower affinity vs SWTMFWV (hOmi_c1)” value in assay [3] stood at 50 fold. The IC50 in assay [1] worked out at 162 µM.
For Ac-WTMFWV-OH (also called WTMFWV) [hOmi_c1_t1], the binding result in assay [3] is “binds”.

B22: libC phage-displayed peptide SEQ ID NO:45 (peptide)
chain: WVDSCPIFWV
modifications: not fully specified (N-terminus)
notes: as for B1
B22: the binding result in assay [2] is given as “binds”.
As to Ac-TMFWV-OH (also called TMFWV) [hOmi_c1_t2], in assay [3], the “fold lower affinity vs SWTMFWV (hOmi_c1)” value came out at 15 fold.

B23: libN phage-displayed peptide SEQ ID NO:49 (peptide)
chain: SHWWGGWLG
modifications: not fully specified (C-terminus)
notes: 17 siblings; not shown: M13 gene-8 major coat protein (P8)
As to B23, the binding result in assay [2] is listed as “binds”.

B24: libC phage-displayed peptide SEQ ID NO:29 (peptide)
chain: NQRVWIFWLI
modifications: not fully specified
notes: as for B1
B24: the binding result in assay [2] is on record as “binds”.

B25: libN phage-displayed peptide SEQ ID NO:52 (peptide)
chain: STDYWWGCG
modifications: not fully specified (C-terminus)
notes: as for B1
Regarding B25, the binding result in assay [2] is “binds”.

B26: libN phage-displayed peptide SEQ ID NO:54 (peptide)
chain: SSDYWWGCG
modifications: not fully specified (C-terminus)
notes: as for B1
Take B26: the binding result in assay [2] is recorded as “binds”.

B27: libC phage-displayed peptide WLDRFPHFWV (peptide)
chain: WLDRFPHFWV
modifications: not fully specified (N-terminus)
notes: 15 siblings; not shown: M13 gene-8 major coat protein (P8)
For B27, the binding result in assay [2] is given as “binds”.

B28: libC phage-displayed peptide SEQ ID NO:34 (peptide)
chain: FLGFLEFFWI
modifications: not fully specified
notes: as for B1
B28: in assay [2], the binding result is “binds”.

B29: libN phage-displayed peptide SEQ ID NO:50 (peptide)
chain: ATEFWWGVG
modifications: not fully specified (C-terminus)
notes: 10 siblings; not shown: M13 gene-8 major coat protein (P8)
B29: in assay [2], the binding result is given as “binds”.

B30: libN phage-displayed peptide SEQ ID NO:55 (peptide)
chain: GIVWFWWDG
modifications: not fully specified (C-terminus)
notes: as for B1
B30: in assay [2], the binding result was “binds”.

B31: libN phage-displayed peptide GIAGFWWDG (peptide)
chain: GIAGFWWDG
modifications: not fully specified (C-terminus)
notes: 9 siblings; not shown: M13 gene-8 major coat protein (P8)
B31: the binding result in assay [2] is “binds”.

B32: libN phage-displayed peptide SEQ ID NO:56 (peptide)
chain: WIAGFWWDG
modifications: not fully specified (C-terminus)
notes: as for B1
On to B32, for which, in assay [2], the binding result is listed as “binds”.

B33: libC phage-displayed peptide SEQ ID NO:30 (peptide)
chain: SSFFRFWFV
modifications: not fully specified
notes: as for B1
As to B33, the binding result in assay [2] was “binds”.

B34: libC phage-displayed peptide SEQ ID NO:38 (peptide)
chain: TRANWLFFWV
modifications: not fully specified (N-terminus)
notes: as for B1
For B34, in assay [2], the binding result is “binds”.

B35: libC phage-displayed peptide SEQ ID NO:43 (peptide)
chain: GLMPLLFFWV
modifications: not fully specified (N-terminus)
notes: as for B1
Turning to B35, in assay [2], the binding result is “binds”.

B36: libN phage-displayed peptide SEQ ID NO:53 (peptide)
chain: GDIVCTWGG
modifications: not fully specified (C-terminus)
notes: as for B1
For B36, the binding result in assay [2] is “binds”.

The term IC50 denotes the point on the concentration scale where inhibition reaches its midpoint.

Values taken from patent publication US20090192289A1 (Genentech, published 2009).
